Laboratory results from patent publication US20030161832A1 (CORNELL RESEARCH FOUNDATION, published 2003).
Blank lines part the entries; values can stand above or below the binder they belong to.

What was measured:
[1] = molecular target: T1, prostate specific membrane antigen (PSMA), human (human, UniProt Q04609 1-750); test: ELISA on LNCaP membrane preparation
T1 construct: whole, on cells; The target was native PSMA on LNCaP cells, in LNCaP membrane preparations (ELISA) or in frozen tissue sections (immunohistochemistry); also called human PSMA

[2] = molecular target: T1, prostate specific membrane antigen …; test: ELISA on LNCaP membrane preparation, purified antibody
[3] = molecular target: T1, prostate specific membrane antigen …; test: stated, method not described

T1 sequence (Q04609 whole entry): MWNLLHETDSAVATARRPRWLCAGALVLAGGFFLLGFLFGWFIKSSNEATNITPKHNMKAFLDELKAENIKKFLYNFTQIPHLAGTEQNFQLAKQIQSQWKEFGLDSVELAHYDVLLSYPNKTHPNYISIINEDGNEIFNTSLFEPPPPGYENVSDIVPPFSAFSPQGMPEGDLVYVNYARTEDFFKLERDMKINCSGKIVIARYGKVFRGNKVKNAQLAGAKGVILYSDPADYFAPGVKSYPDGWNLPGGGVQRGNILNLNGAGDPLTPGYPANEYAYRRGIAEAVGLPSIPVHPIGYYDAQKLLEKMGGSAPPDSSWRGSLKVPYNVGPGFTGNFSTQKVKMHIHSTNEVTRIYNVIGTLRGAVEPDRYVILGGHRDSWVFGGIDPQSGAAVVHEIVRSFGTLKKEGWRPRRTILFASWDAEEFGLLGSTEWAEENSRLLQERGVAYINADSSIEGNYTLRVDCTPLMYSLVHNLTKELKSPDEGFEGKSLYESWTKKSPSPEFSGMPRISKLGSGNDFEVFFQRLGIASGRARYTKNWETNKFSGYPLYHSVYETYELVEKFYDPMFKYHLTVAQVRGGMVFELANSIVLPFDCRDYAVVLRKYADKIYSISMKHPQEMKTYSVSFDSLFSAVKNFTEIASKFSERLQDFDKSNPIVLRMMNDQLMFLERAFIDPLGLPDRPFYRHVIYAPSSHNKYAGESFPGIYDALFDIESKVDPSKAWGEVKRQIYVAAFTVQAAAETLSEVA

binding result [1]: binds
B1: deimmunized J415 antibody composed of heavy chain version 4 (J415DIVH4) and light chain version 5 (J415DIVK5) (antibody, V domains shown)
VH: EVKLEESGGGLVQPGGSMKISCVASGFTFSNYWMNWVRQSPEKGLEWVAEIRSQSNNFATHYAESVKGRVIISRDDSKSSVYLQMNSLRAEDTAVYYCTRRWNNFWGQGTTVTVSS
VL: NIVMTQFPKSMSASAGERMTLTCKASENVGTYVSWYQQKPTQSPKMLIYGASNRFTGVPDRFSGSGSGTDFILTISSVQAEDLVDYYCGQSYTFPYTFGGGTKLEMK
notes: also called DIVH4/DIVK5; deJ415

fold less binding than the chimeric J415 antibody [2]: 2 fold
B2: deimmunized J415 antibody composed of heavy chain version 2 (J415DIVH2) and light chain version 5 (J415DIVK5) (antibody, V domains shown)
VH: EVKLEESGGGLVQPGGSMKISCVASGFTFSNYWMNWVRQTPEKGLEWVALIRSQSNNFATHYAESVKGRVIISRDDSKSSVYLQMNSLRAEDTAVYYCTRRWNNFWGQGTTVTVSS
VL: NIVMTQFPKSMSASAGERMTLTCKASENVGTYVSWYQQKPTQSPKMLIYGASNRFTGVPDRFSGSGSGTDFILTISSVQAEDLVDYYCGQSYTFPYTFGGGTKLEMK
notes: also called DIVK5 combined with heavy chain version 2; J415DIVH2 + J415DIVK5

binding result [3]: binds
B3: murine monoclonal antibody J415 (hybridoma ATCC HB-12109) (antibody, mouse IgG1, V domains shown)
VH: EVKLEESGGGLVQPGGSMKLSCVASGFTFSNYWMNWVRQSPEKGLEWVAEIRSQSNNFATHYAESVKGRVIISRDDSKSSVYLQMNNLRAEDTGIYYCTRRWNNFWGQGTTLTVSS
VL: NIVMTQFPKSMSISVGERVTLTCKASENVGTYVSWYQQKPEQSPKMLIYGASNRFTGVPDRFTGSGSATDFILTISSVQTEDLVDYYCGQSYTFPYTFGGGTKLEMK
notes: also called murine J415

binding result [1]: binds
B4: J415 chimeric antibody (murine variable heavy and light chain regions fused to human constant heavy and light chain regions) (antibody, V domains shown)
VH: EVKLEESGGGLVQPGGSMKLSCVASGFTFSNYWMNWVRQSPEKGLEWVAEIRSQSNNFATHYAESVKGRVIISRDDSKSSVYLQMNNLRAEDTGIYYCTRRWNNFWGQGTTLTVSS
VL: NIVMTQFPKSMSISVGERVTLTCKASENVGTYVSWYQQKPEQSPKMLIYGASNRFTGVPDRFTGSGSATDFILTISSVQTEDLVDYYCGQSYTFPYTFGGGTKLEMK
notes: also called the chimeric

fold less binding than the chimeric J415 antibody [2]: 2 fold
B5: deimmunized J415 antibody composed of heavy chain version 1 (J415DIVH1) and light chain version 5 (J415DIVK5) (antibody, V domains shown)
VH: EVKLEESGGGLVQPGGSMKISCKASGFTFSNYWMNWVRQTPEKGLEWVALIRSQSNNFATHYAESVKGRVIISRDDSKSSVYLQMNSLRAEDTAVYYCTRRWNNFWGQGTTVTVSS
VL: NIVMTQFPKSMSASAGERMTLTCKASENVGTYVSWYQQKPTQSPKMLIYGASNRFTGVPDRFSGSGSGTDFILTISSVQAEDLVDYYCGQSYTFPYTFGGGTKLEMK
notes: also called DIVK5 combined with heavy chain version 1; J415DIVH1 + J415DIVK5

binding result [3]: binds
B6: murine monoclonal antibody J533 (hybridoma ATCC HB-12127) (antibody, mouse IgG1, V domains shown)
VH: EVQLQQSGPELVKPGASVKMSCKASGYTFTGYVMHWVKQKPGQVLEWIGYINPYNDVTRYNGKFKGKATLTSDKYSSTAYMELSGLTSEDSAVYYCARGENWYYFDSWGRGATLTVSS
VL: DIVLTQSPASLAVSLGQRATISCRASESIDSYDNTFMHWYQQKPGQPPNLLIFRASILESGIPARFSGSGSGTDFTLTIYPVEADDVATYYCHQSIEDPYTFGGGTKLEIK
notes: also called murine J533

binding result [3]: binds
B7: murine monoclonal antibody E99 (hybridoma ATCC HB-12101) (antibody, mouse IgG3, V domains shown)
VH: QVQLKESGPGLVASSQSLSITCTVSGFSLTAYGINWVRQPPGKGLEWLGVIWPDGNTDYNSTLKSRLNIFKDNSKNQVFLKMSSFQTDDTARYFCARDSYGNFKRGWFDFWGQGTTLTVSS
VL: NIVMTQSQKFMSTSPGDRVRVTCKASQNVGSDVAWYQAKPGQSPRILIYSTSYRYSGVPDRFTAYGSGTDFTLTITNVQSEDLTEYFCQQYNSYPLTFGAGTKLELK
notes: also called murine E99
